The results in this text go back to US10543259.

In data set [1] the target is recombinant human IGFBP-5, 125I-labeled, P24593.
Data set [2] addresses T1, recombinant human IGFBP-4, 125I-labeled, P22692.
T1 chain: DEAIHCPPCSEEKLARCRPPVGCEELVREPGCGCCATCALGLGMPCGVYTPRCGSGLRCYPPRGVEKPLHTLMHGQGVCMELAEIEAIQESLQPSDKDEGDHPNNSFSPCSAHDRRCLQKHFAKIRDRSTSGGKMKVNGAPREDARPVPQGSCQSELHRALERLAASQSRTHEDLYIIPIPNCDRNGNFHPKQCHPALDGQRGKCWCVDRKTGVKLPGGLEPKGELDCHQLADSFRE

For data set [3], the target named is recombinant human IGFBP-3, 125I-labeled, P17936.
Chain of recombinant human IGFBP-3, 125I-labeled, P17936 (P17936 28-291): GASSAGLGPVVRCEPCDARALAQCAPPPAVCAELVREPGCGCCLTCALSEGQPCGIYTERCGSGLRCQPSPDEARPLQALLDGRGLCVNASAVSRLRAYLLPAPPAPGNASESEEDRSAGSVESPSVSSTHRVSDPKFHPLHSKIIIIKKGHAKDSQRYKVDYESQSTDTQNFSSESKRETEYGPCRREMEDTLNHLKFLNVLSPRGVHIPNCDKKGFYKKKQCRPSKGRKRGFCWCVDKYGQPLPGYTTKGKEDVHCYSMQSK

Chain of recombinant human IGFBP-5, 125I-labeled, P24593 (P24593 21-272): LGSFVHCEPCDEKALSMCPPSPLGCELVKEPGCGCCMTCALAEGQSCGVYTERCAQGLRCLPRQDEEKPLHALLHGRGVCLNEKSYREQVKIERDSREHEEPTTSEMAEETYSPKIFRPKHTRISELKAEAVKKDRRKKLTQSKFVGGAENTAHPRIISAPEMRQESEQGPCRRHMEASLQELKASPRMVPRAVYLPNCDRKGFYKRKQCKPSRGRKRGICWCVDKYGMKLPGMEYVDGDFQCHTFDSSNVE

B1: recombinant wild-type human PAPP-A2 (pregnancy-associated plasma protein-A2) (protein)
chain: PPEESNQNGGEGSYREAETFNSQVGLPILYFSGRRERLLLRPEVLAEIPREAFTVEAWVKPEGGQNNPAIIAGVFDNCSHTVSDKGWALGIRSGKDKGKRDARFFFSLCTDRVKKATILISHSRYQPGTWTHVAATYDGRHMALYVDGTQVASSLDQSGPLNSPFMASCRSLLLGGDSSEDGHYFRGHLGTLVFWSTALPQSHFQHSSQHSSGEEEATDLVLTASFEPVNTEWVPFRDEKYPRLEVLQGFEPEPEILSPLQPPLCGQTVCDNVELISQYNGYWPLRGEKVIRYQVVNICDDEGLNPIVSEEQIRLQHEALNEAFSRYNISWQLSVHQVHNSTLRHRVVLVNCEPSKIGNDHCDPECEHPLTGYDGGDCRLQGRCYSWNRRDGLCHVECNNMLNDFDDGDCCDPQVADVRKTCFDPDSPKRAYMSVKELKEALQLNSTHFLNIYFASSVREDLAGAATWPWDKDAVTHLGGIVLSPAYYGMPGHTDTMIHEVGHVLGLYHVFKGVSERESCNDPCKETVPSMETGDLCADTAPTPKSELCREPEPTSDTCGFTRFPGAPFTNYMSYTDDNCTDNFTPNQVARMHCYLDLVYQQWTESRKPTPIPIPPMVIGQTNKSLTIHWLPPISGVVYDRASGSLCGACTEDGTFRQYVHTASSRRVCDSSGYWTPEEAVGPPDVDQPCEPSLQAWSPEVHLYHMNMTVPCPTEGCSLELLFQHPVQADTLTLWVTSFFMESSQVLFDTEILLENKESVHLGPLDTFCDIPLTIKLHVDGKVSGVKVYTFDERIEIDAALLTSQPHSPLCSGCRPVRYQVLRDPPFASGLPVVVTHSHRKFTDVEVTPGQMYQYQVLAEAGGELGEASPPLNHIHGAPYCGDGKVSERLGEECDDGDLVSGDGCSKVCELEEGFNCVGEPSLCYMYEGDGICEPFERKTSIVDCGIYTPKGYLDQWATRAYSSHEDKKKCPVSLVTGEPHSLICTSYHPDLPNHRPLTGWFPCVASENETQDDRSEQPEGSLKKEDEVWLKVCFNRPGEARAIFIFLTTDGLVPGEHQQPTVTLYLTDVRGSNHSLGTYGLSCQHNPLIINVTHHQNVLFHHTTSVLLNFSSPRVGISAVALRTSSRIGLSAPSNCISEDEGQNHQGQSCIHRPCGKQDSCPSLLLDHADVVNCTSIGPGLMKCAITCQRGFALQASSGQYIRPMQKEILLTCSSGHWDQNVSCLPVDCGVPDPSLVNYANFSCSEGTKFLKRCSISCVPPAKLQGLSPWLTCLEDGLWSLPEVYCKLECDAPPIILNANLLLPHCLQDNHDVGTICKYECKPGYYVAESAEGKVRNKLLKIQCLEGGIWEQGSCIPVVCEPPPPVFEGMYECTNGFSLDSQCVLNCNQEREKLPILCTKEGLWTQEFKLCENLQGECPPPPSELNSVEYKCEQGYGIGAVCSPLCVIPPSDPVMLPENITADTLEHWMEPVKVQSIVCTGRRQWHPDPVLVHCIQSCEPFQADGWCDTINNRAYCHYDGGDCCSSTLSSKKVIPFAADCDLDECTCRDPKAEENQ
As to B1, the “proteolytic cleavage of radiolabeled IGFBP (SDS-PAGE, autoradiography)” value was “media from cells transfected with WT PAPP-A2 cDNA completely cleaved these substrates” in data set [1]; “none of the variants cleaved the PAPP-A substrate, IGFBP-4” in data set [2]; “media from cells transfected with WT PAPP-A2 cDNA completely cleaved these substrates” in data set [3].

B2: PAPP-A2(A1033V) (protein)
chain: PPEESNQNGGEGSYREAETFNSQVGLPILYFSGRRERLLLRPEVLAEIPREAFTVEAWVKPEGGQNNPAIIAGVFDNCSHTVSDKGWALGIRSGKDKGKRDARFFFSLCTDRVKKATILISHSRYQPGTWTHVAATYDGRHMALYVDGTQVASSLDQSGPLNSPFMASCRSLLLGGDSSEDGHYFRGHLGTLVFWSTALPQSHFQHSSQHSSGEEEATDLVLTASFEPVNTEWVPFRDEKYPRLEVLQGFEPEPEILSPLQPPLCGQTVCDNVELISQYNGYWPLRGEKVIRYQVVNICDDEGLNPIVSEEQIRLQHEALNEAFSRYNISWQLSVHQVHNSTLRHRVVLVNCEPSKIGNDHCDPECEHPLTGYDGGDCRLQGRCYSWNRRDGLCHVECNNMLNDFDDGDCCDPQVADVRKTCFDPDSPKRAYMSVKELKEALQLNSTHFLNIYFASSVREDLAGAATWPWDKDAVTHLGGIVLSPAYYGMPGHTDTMIHEVGHVLGLYHVFKGVSERESCNDPCKETVPSMETGDLCADTAPTPKSELCREPEPTSDTCGFTRFPGAPFTNYMSYTDDNCTDNFTPNQVARMHCYLDLVYQQWTESRKPTPIPIPPMVIGQTNKSLTIHWLPPISGVVYDRASGSLCGACTEDGTFRQYVHTASSRRVCDSSGYWTPEEAVGPPDVDQPCEPSLQAWSPEVHLYHMNMTVPCPTEGCSLELLFQHPVQADTLTLWVTSFFMESSQVLFDTEILLENKESVHLGPLDTFCDIPLTIKLHVDGKVSGVKVYTFDERIEIDVALLTSQPHSPLCSGCRPVRYQVLRDPPFASGLPVVVTHSHRKFTDVEVTPGQMYQYQVLAEAGGELGEASPPLNHIHGAPYCGDGKVSERLGEECDDGDLVSGDGCSKVCELEEGFNCVGEPSLCYMYEGDGICEPFERKTSIVDCGIYTPKGYLDQWATRAYSSHEDKKKCPVSLVTGEPHSLICTSYHPDLPNHRPLTGWFPCVASENETQDDRSEQPEGSLKKEDEVWLKVCFNRPGEARAIFIFLTTDGLVPGEHQQPTVTLYLTDVRGSNHSLGTYGLSCQHNPLIINVTHHQNVLFHHTTSVLLNFSSPRVGISAVALRTSSRIGLSAPSNCISEDEGQNHQGQSCIHRPCGKQDSCPSLLLDHADVVNCTSIGPGLMKCAITCQRGFALQASSGQYIRPMQKEILLTCSSGHWDQNVSCLPVDCGVPDPSLVNYANFSCSEGTKFLKRCSISCVPPAKLQGLSPWLTCLEDGLWSLPEVYCKLECDAPPIILNANLLLPHCLQDNHDVGTICKYECKPGYYVAESAEGKVRNKLLKIQCLEGGIWEQGSCIPVVCEPPPPVFEGMYECTNGFSLDSQCVLNCNQEREKLPILCTKEGLWTQEFKLCENLQGECPPPPSELNSVEYKCEQGYGIGAVCSPLCVIPPSDPVMLPENITADTLEHWMEPVKVQSIVCTGRRQWHPDPVLVHCIQSCEPFQADGWCDTINNRAYCHYDGGDCCSSTLSSKKVIPFAADCDLDECTCRDPKAEENQ
Turning to B2, the “proteolytic cleavage at equimolar concentrations of wild type and mutant (6 h reaction)” value is “at equimolar concentrations (FIG. 3C), it still showed no activity” in data set [1] and “at equimolar concentrations (FIG. 3C), it still showed no activity” in data set [3]. The “proteolytic cleavage of radiolabeled IGFBP (SDS-PAGE, autoradiography)” value in data set [1] is on record as “showed no proteolytic activity towards IGFBP-3 or -5”; in data set [2], “none of the variants cleaved the PAPP-A substrate, IGFBP-4”; in data set [3], “showed no proteolytic activity towards IGFBP-3 or -5”.
